What was measured:
HutD [1] = target: T1, HutD (Vibrio cholerae, UniProt Q9KL34); assay: biochemical
T1 construct: gene hmuV

HutD [2] = assay: cross-linking
HutD [3] = assay: SEC; Superdex 200 Increase 10/300 GL; 250 uM HutD preincubated 1.5 h at 4 °C with 500 uM AMP.PNP; 500 ul injected; 50 mM Tris-HCl pH 8.0, 300 mM NaCl, 5 mM MgCl2; 0.5 ml/min; calibrated with molecular weight standards

Sequence of HutD (enzyme) (O52047 whole entry): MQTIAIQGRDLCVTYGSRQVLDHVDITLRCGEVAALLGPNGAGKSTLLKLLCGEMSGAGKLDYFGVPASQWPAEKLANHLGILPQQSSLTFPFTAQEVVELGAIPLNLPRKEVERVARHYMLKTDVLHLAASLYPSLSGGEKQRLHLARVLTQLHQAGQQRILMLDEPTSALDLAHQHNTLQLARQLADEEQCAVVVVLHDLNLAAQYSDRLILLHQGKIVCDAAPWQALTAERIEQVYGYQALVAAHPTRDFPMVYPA
T1 sequence (Q9KL34 whole entry, looked up): as the sequence (O52047 whole entry) above

Compound	Kd (HutD [1])	stoichiometry N (HutD [2])	stoichiometry N (HutD [3])
Nc1ncnc2c1ncn2[C@@H]1O[C@H](COP(=O)(O)OP(=O)(O)NP(=O)(O)O)[C@@H](O)[C@H]1O [AMP.PNP]	94 ± 0.024 µM		
HutD (enzyme)		2	2
